Results reported in paper PMC3542820.

Molecular target: T1, Rfa2-His from WT cells (HT41), dephosphorylated G1 form (Candida albicans, UniProt Q59Z33 1-272)
T1 sequence: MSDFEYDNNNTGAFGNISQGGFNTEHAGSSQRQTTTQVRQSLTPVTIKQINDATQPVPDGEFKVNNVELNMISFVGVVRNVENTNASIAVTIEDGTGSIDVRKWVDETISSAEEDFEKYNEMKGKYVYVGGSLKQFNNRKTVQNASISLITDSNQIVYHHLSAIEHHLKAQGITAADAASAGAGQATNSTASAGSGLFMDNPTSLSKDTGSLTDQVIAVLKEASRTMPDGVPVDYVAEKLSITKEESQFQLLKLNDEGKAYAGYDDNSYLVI
Test: EMSA

B1: FITC-dsDNA 30 bp (dsDNA)
DNA 1: CCCCTCTCCTTCTTGGCCTCTTCCTTCCCC
DNA 2: GGGGAAGGAAGAGGCCAAGAAGGAGAGGGG
- binding result: binds
